The results in this text go back to patent US5747322.

Substitutions are numbered along the chain they refer to. In names and notes the source's numbering stands. A value given as a limit tells only on which side of the number the result lay.

One assay has as its target T1, Z-GPR-pNA.
T1 sequence (peptide, N-terminal Z; C-terminal pNA): GPR

A further assay has as its target T2, Suc-AAP-Ala-pNA.
T2 sequence (peptide, N-terminal Suc; C-terminal pNA): AAPA

The target in another assay is T3, Suc-AAP-Leu-pNA.
T3 sequence (peptide, N-terminal Suc; C-terminal pNA): AAPL

The target of assay [1] is bovine calf skin collagen (type I collagen) (bovine) (UniProt P02453).

B1: crab collagenase D226G/G189D (enzyme)
chain: IVGGVEAVPNSWPHQAALFIDDMYFCGGSLISPEWILTAAHCMDGAGFVDVVLGAHNIREDEATQVTIQSTDFTVHENYNSFVISNDIAVIRLPSPVTLTAAIATVGLPSTDVGVGTVVTPTGWGLPSDSALGISDVLRQVDVPIMSNADCDAVYGIVTDGNICIDSTGGKDTCNGDSGGPLNYNGLTYGITSFGAAAGCEAGYPGAFTRVTYFLDWIQTQTGITP
As to B1, the kcat /Km with Z-GPR-pNA is 0.87 µM⁻¹ min⁻¹; with Suc-AAP-Met-pNA it was 1.4 µM⁻¹ min⁻¹; in the assay with Suc-AAP-Orn-pNA it was 0.288 µM⁻¹ min⁻¹; with Suc-AAP-Ala-pNA it was 0.052 µM⁻¹ min⁻¹; with Suc-AAP-Arg-pNA, 55 µM⁻¹ min⁻¹; with Suc-AAP-Lys-pNA, 1.4 µM⁻¹ min⁻¹. Moreover, the kcat /Km with Suc-AAP-Phe-pNA turned out to be 1.4 µM⁻¹ min⁻¹; in the assay with Suc-AAP-Leu-pNA, 3.1 µM⁻¹ min⁻¹; in the assay with Suc-AAP-Gln-pNA, 0.33 µM⁻¹ min⁻¹.

B2: crab collagenase D226G (enzyme)
chain: B1 chain with D172G
Take B2: the kcat /Km turned out to be 0.022 µM⁻¹ min⁻¹ with Z-GPR-pNA; 2.9 µM⁻¹ min⁻¹ with Suc-AAP-Met-pNA; 0.023 µM⁻¹ min⁻¹ with Suc-AAP-Orn-pNA; 0.019 µM⁻¹ min⁻¹ in the assay with Suc-AAP-Ala-pNA; 2.9 µM⁻¹ min⁻¹ in the assay with Suc-AAP-Arg-pNA; 0.024 µM⁻¹ min⁻¹ in the assay with Suc-AAP-Lys-pNA. Further, the figures for the kcat /Km with Suc-AAP-Phe-pNA, with Suc-AAP-Leu-pNA and in the assay with Suc-AAP-Gln-pNA were 6.9 µM⁻¹ min⁻¹, 4.8 µM⁻¹ min⁻¹ and 0.33 µM⁻¹ min⁻¹, respectively.

B3: recombinant crab serine collagenase 1 (mature, wild type) (enzyme)
chain: B1 chain with D172G, G206D
Consider B3, for which the kcat /Km amounted to 0.43 µM⁻¹ min⁻¹ in the assay with Z-GPR-pNA; 4.2 µM⁻¹ min⁻¹ with Suc-AAP-Met-pNA; 0.47 µM⁻¹ min⁻¹ with Suc-AAP-Orn-pNA; 0.13 µM⁻¹ min⁻¹ with Suc-AAP-Ala-pNA; 80 µM⁻¹ min⁻¹ with Suc-AAP-Arg-pNA; 3.6 µM⁻¹ min⁻¹ in the assay with Suc-AAP-Lys-pNA. In addition, the kcat /Km came out at 9.5 µM⁻¹ min⁻¹ with Suc-AAP-Phe-pNA, 9.1 µM⁻¹ min⁻¹ in the assay with Suc-AAP-Leu-pNA and 1.1 µM⁻¹ min⁻¹ with Suc-AAP-Gln-pNA. This molecule also came in with a collagen cleavage (3/4, 1/4 fragmentation pattern) in assay [1] of over 50%.
